From patent US20210388087A1 (Chugai, published 2021)

Target: T1, Human CD3eg linker (human)
T1 construct: Single chain: epsilon and gamma subunits of human CD3 joined by a 29-mer linker, Flag-tag at the C-terminus; also called recombinant human CD3
T1 chain: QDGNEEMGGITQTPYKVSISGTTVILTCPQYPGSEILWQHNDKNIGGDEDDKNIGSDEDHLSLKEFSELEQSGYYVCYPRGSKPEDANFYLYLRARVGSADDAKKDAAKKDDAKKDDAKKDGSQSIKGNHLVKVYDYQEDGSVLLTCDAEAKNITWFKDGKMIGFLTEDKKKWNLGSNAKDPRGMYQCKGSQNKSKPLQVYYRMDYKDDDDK
Assay: Biacore SPR, vs template H183/L072

Row | Binder | fold change of affinity [fold]
1 | H183/L072 VH V100iM (antibody, name in Kabat numbering, V domains shown) VH: QVQLVESGGGLVQPGRSLRLSCAASGFTFSNAWMHWVRQAPGKGLEWVAQIKDKGNAYAAYYAPSVKGRFTISRDDSKNSIYLQMNSLKTEDTAVYYCHYVHYASASTVLPAFGMDAWGQGTTVTVSS VL: DIVMTQSPLSLPVTPGEPASISCQASQELVHMNRNTYLHWYQQKPGQAPRLLIYKVSNRFPGVPDRFSGSGSGTDFTLKISRVEAEDVGVYYCAQGTSVPFTFGQGTKLEIK | 5.6
2 | H183/L072 VH W33K (antibody, name in Kabat numbering, V domains shown) VH: QVQLVESGGGLVQPGRSLRLSCAASGFTFSNAKMHWVRQAPGKGLEWVAQIKDKGNAYAAYYAPSVKGRFTISRDDSKNSIYLQMNSLKTEDTAVYYCHYVHYASASTVLPAFGVDAWGQGTTVTVSS VL: DIVMTQSPLSLPVTPGEPASISCQASQELVHMNRNTYLHWYQQKPGQAPRLLIYKVSNRFPGVPDRFSGSGSGTDFTLKISRVEAEDVGVYYCAQGTSVPFTFGQGTKLEIK | 0
3 | H183/L072 VH W33Q (antibody, name in Kabat numbering, V domains shown) VH: QVQLVESGGGLVQPGRSLRLSCAASGFTFSNAQMHWVRQAPGKGLEWVAQIKDKGNAYAAYYAPSVKGRFTISRDDSKNSIYLQMNSLKTEDTAVYYCHYVHYASASTVLPAFGVDAWGQGTTVTVSS VL: DIVMTQSPLSLPVTPGEPASISCQASQELVHMNRNTYLHWYQQKPGQAPRLLIYKVSNRFPGVPDRFSGSGSGTDFTLKISRVEAEDVGVYYCAQGTSVPFTFGQGTKLEIK | 0
4 | H183/L072 VH W33G (antibody, name in Kabat numbering, V domains shown) VH: QVQLVESGGGLVQPGRSLRLSCAASGFTFSNAGMHWVRQAPGKGLEWVAQIKDKGNAYAAYYAPSVKGRFTISRDDSKNSIYLQMNSLKTEDTAVYYCHYVHYASASTVLPAFGVDAWGQGTTVTVSS VL: DIVMTQSPLSLPVTPGEPASISCQASQELVHMNRNTYLHWYQQKPGQAPRLLIYKVSNRFPGVPDRFSGSGSGTDFTLKISRVEAEDVGVYYCAQGTSVPFTFGQGTKLEIK | 0
5 | H183/L072 VH W33F (antibody, name in Kabat numbering, V domains shown) VH: QVQLVESGGGLVQPGRSLRLSCAASGFTFSNAFMHWVRQAPGKGLEWVAQIKDKGNAYAAYYAPSVKGRFTISRDDSKNSIYLQMNSLKTEDTAVYYCHYVHYASASTVLPAFGVDAWGQGTTVTVSS VL: DIVMTQSPLSLPVTPGEPASISCQASQELVHMNRNTYLHWYQQKPGQAPRLLIYKVSNRFPGVPDRFSGSGSGTDFTLKISRVEAEDVGVYYCAQGTSVPFTFGQGTKLEIK | 0.4
6 | H183/L072 VH W33T (antibody, name in Kabat numbering, V domains shown) VH: QVQLVESGGGLVQPGRSLRLSCAASGFTFSNATMHWVRQAPGKGLEWVAQIKDKGNAYAAYYAPSVKGRFTISRDDSKNSIYLQMNSLKTEDTAVYYCHYVHYASASTVLPAFGVDAWGQGTTVTVSS VL: DIVMTQSPLSLPVTPGEPASISCQASQELVHMNRNTYLHWYQQKPGQAPRLLIYKVSNRFPGVPDRFSGSGSGTDFTLKISRVEAEDVGVYYCAQGTSVPFTFGQGTKLEIK | 0
7 | H183/L072 VH W33R (antibody, name in Kabat numbering, V domains shown) VH: QVQLVESGGGLVQPGRSLRLSCAASGFTFSNARMHWVRQAPGKGLEWVAQIKDKGNAYAAYYAPSVKGRFTISRDDSKNSIYLQMNSLKTEDTAVYYCHYVHYASASTVLPAFGVDAWGQGTTVTVSS VL: DIVMTQSPLSLPVTPGEPASISCQASQELVHMNRNTYLHWYQQKPGQAPRLLIYKVSNRFPGVPDRFSGSGSGTDFTLKISRVEAEDVGVYYCAQGTSVPFTFGQGTKLEIK | 0
8 | H183/L072 VH W33V (antibody, name in Kabat numbering, V domains shown) VH: QVQLVESGGGLVQPGRSLRLSCAASGFTFSNAVMHWVRQAPGKGLEWVAQIKDKGNAYAAYYAPSVKGRFTISRDDSKNSIYLQMNSLKTEDTAVYYCHYVHYASASTVLPAFGVDAWGQGTTVTVSS VL: DIVMTQSPLSLPVTPGEPASISCQASQELVHMNRNTYLHWYQQKPGQAPRLLIYKVSNRFPGVPDRFSGSGSGTDFTLKISRVEAEDVGVYYCAQGTSVPFTFGQGTKLEIK | 0
9 | H183/L072 VH W33D (antibody, name in Kabat numbering, V domains shown) VH: QVQLVESGGGLVQPGRSLRLSCAASGFTFSNADMHWVRQAPGKGLEWVAQIKDKGNAYAAYYAPSVKGRFTISRDDSKNSIYLQMNSLKTEDTAVYYCHYVHYASASTVLPAFGVDAWGQGTTVTVSS VL: DIVMTQSPLSLPVTPGEPASISCQASQELVHMNRNTYLHWYQQKPGQAPRLLIYKVSNRFPGVPDRFSGSGSGTDFTLKISRVEAEDVGVYYCAQGTSVPFTFGQGTKLEIK | 0
10 | H183/L072 VH W33P (antibody, name in Kabat numbering, V domains shown) VH: QVQLVESGGGLVQPGRSLRLSCAASGFTFSNAPMHWVRQAPGKGLEWVAQIKDKGNAYAAYYAPSVKGRFTISRDDSKNSIYLQMNSLKTEDTAVYYCHYVHYASASTVLPAFGVDAWGQGTTVTVSS VL: DIVMTQSPLSLPVTPGEPASISCQASQELVHMNRNTYLHWYQQKPGQAPRLLIYKVSNRFPGVPDRFSGSGSGTDFTLKISRVEAEDVGVYYCAQGTSVPFTFGQGTKLEIK | 0
11 | H183/L072 VH W33L (antibody, name in Kabat numbering, V domains shown) VH: QVQLVESGGGLVQPGRSLRLSCAASGFTFSNALMHWVRQAPGKGLEWVAQIKDKGNAYAAYYAPSVKGRFTISRDDSKNSIYLQMNSLKTEDTAVYYCHYVHYASASTVLPAFGVDAWGQGTTVTVSS VL: DIVMTQSPLSLPVTPGEPASISCQASQELVHMNRNTYLHWYQQKPGQAPRLLIYKVSNRFPGVPDRFSGSGSGTDFTLKISRVEAEDVGVYYCAQGTSVPFTFGQGTKLEIK | 0
12 | H183/L072 VH W33S (antibody, name in Kabat numbering, V domains shown) VH: QVQLVESGGGLVQPGRSLRLSCAASGFTFSNASMHWVRQAPGKGLEWVAQIKDKGNAYAAYYAPSVKGRFTISRDDSKNSIYLQMNSLKTEDTAVYYCHYVHYASASTVLPAFGVDAWGQGTTVTVSS VL: DIVMTQSPLSLPVTPGEPASISCQASQELVHMNRNTYLHWYQQKPGQAPRLLIYKVSNRFPGVPDRFSGSGSGTDFTLKISRVEAEDVGVYYCAQGTSVPFTFGQGTKLEIK | 0
13 | H183/L072 VH W33I (antibody, name in Kabat numbering, V domains shown) VH: QVQLVESGGGLVQPGRSLRLSCAASGFTFSNAIMHWVRQAPGKGLEWVAQIKDKGNAYAAYYAPSVKGRFTISRDDSKNSIYLQMNSLKTEDTAVYYCHYVHYASASTVLPAFGVDAWGQGTTVTVSS VL: DIVMTQSPLSLPVTPGEPASISCQASQELVHMNRNTYLHWYQQKPGQAPRLLIYKVSNRFPGVPDRFSGSGSGTDFTLKISRVEAEDVGVYYCAQGTSVPFTFGQGTKLEIK | 0
14 | H183/L072 VH W33A (antibody, name in Kabat numbering, V domains shown) VH: QVQLVESGGGLVQPGRSLRLSCAASGFTFSNAAMHWVRQAPGKGLEWVAQIKDKGNAYAAYYAPSVKGRFTISRDDSKNSIYLQMNSLKTEDTAVYYCHYVHYASASTVLPAFGVDAWGQGTTVTVSS VL: DIVMTQSPLSLPVTPGEPASISCQASQELVHMNRNTYLHWYQQKPGQAPRLLIYKVSNRFPGVPDRFSGSGSGTDFTLKISRVEAEDVGVYYCAQGTSVPFTFGQGTKLEIK | 0
15 | H183/L072 VH W33H (antibody, name in Kabat numbering, V domains shown) VH: QVQLVESGGGLVQPGRSLRLSCAASGFTFSNAHMHWVRQAPGKGLEWVAQIKDKGNAYAAYYAPSVKGRFTISRDDSKNSIYLQMNSLKTEDTAVYYCHYVHYASASTVLPAFGVDAWGQGTTVTVSS VL: DIVMTQSPLSLPVTPGEPASISCQASQELVHMNRNTYLHWYQQKPGQAPRLLIYKVSNRFPGVPDRFSGSGSGTDFTLKISRVEAEDVGVYYCAQGTSVPFTFGQGTKLEIK | 0
16 | H183/L072 VH V100iP (antibody, name in Kabat numbering, V domains shown) VH: QVQLVESGGGLVQPGRSLRLSCAASGFTFSNAWMHWVRQAPGKGLEWVAQIKDKGNAYAAYYAPSVKGRFTISRDDSKNSIYLQMNSLKTEDTAVYYCHYVHYASASTVLPAFGPDAWGQGTTVTVSS VL: DIVMTQSPLSLPVTPGEPASISCQASQELVHMNRNTYLHWYQQKPGQAPRLLIYKVSNRFPGVPDRFSGSGSGTDFTLKISRVEAEDVGVYYCAQGTSVPFTFGQGTKLEIK | 1.2
17 | H183/L072 VH W33E (antibody, name in Kabat numbering, V domains shown) VH: QVQLVESGGGLVQPGRSLRLSCAASGFTFSNAEMHWVRQAPGKGLEWVAQIKDKGNAYAAYYAPSVKGRFTISRDDSKNSIYLQMNSLKTEDTAVYYCHYVHYASASTVLPAFGVDAWGQGTTVTVSS VL: DIVMTQSPLSLPVTPGEPASISCQASQELVHMNRNTYLHWYQQKPGQAPRLLIYKVSNRFPGVPDRFSGSGSGTDFTLKISRVEAEDVGVYYCAQGTSVPFTFGQGTKLEIK | 0
18 | H183/L072 VH W33N (antibody, name in Kabat numbering, V domains shown) VH: QVQLVESGGGLVQPGRSLRLSCAASGFTFSNANMHWVRQAPGKGLEWVAQIKDKGNAYAAYYAPSVKGRFTISRDDSKNSIYLQMNSLKTEDTAVYYCHYVHYASASTVLPAFGVDAWGQGTTVTVSS VL: DIVMTQSPLSLPVTPGEPASISCQASQELVHMNRNTYLHWYQQKPGQAPRLLIYKVSNRFPGVPDRFSGSGSGTDFTLKISRVEAEDVGVYYCAQGTSVPFTFGQGTKLEIK | 0
19 | H183/L072 VH W33M (antibody, name in Kabat numbering, V domains shown) VH: QVQLVESGGGLVQPGRSLRLSCAASGFTFSNAMMHWVRQAPGKGLEWVAQIKDKGNAYAAYYAPSVKGRFTISRDDSKNSIYLQMNSLKTEDTAVYYCHYVHYASASTVLPAFGVDAWGQGTTVTVSS VL: DIVMTQSPLSLPVTPGEPASISCQASQELVHMNRNTYLHWYQQKPGQAPRLLIYKVSNRFPGVPDRFSGSGSGTDFTLKISRVEAEDVGVYYCAQGTSVPFTFGQGTKLEIK | 0
